Source: paper doi:10.1101/559120

Target: branched-chain amino acid aminotransferase from Pseudomonas sp. (Pseudomonas sp.)
Test: crystal structure

## branched-chain amino acid aminotransferase from Pseudomonas sp. (enzyme)
  stoichiometry N: 2
